Measurements: patent US20240358849A1 (SUZHOU FUSE BIOSCIENCES, published 2024)
Substitutions are numbered along the chain they refer to. Names may count otherwise. Values belong to the molecule of their own block, whether it stands above or below them.

Key:
[1] = biological target: Fc receptor CD64, Avi-tagged (UniProt P12314); experiment: BLI, Avi-tagged receptor on streptavidin sensor; IgG complexed with TNFα
[2] = biological target: T1, human interleukin-2 (IL-2), wild type (human, UniProt P60568 21-153, biotinylated when immobilized); experiment: BLI; Table 11 (N.B. = no detectable binding)
T1 construct: also called biotinylated IL-2; IL2 WT
T1 sequence (P60568 21-153): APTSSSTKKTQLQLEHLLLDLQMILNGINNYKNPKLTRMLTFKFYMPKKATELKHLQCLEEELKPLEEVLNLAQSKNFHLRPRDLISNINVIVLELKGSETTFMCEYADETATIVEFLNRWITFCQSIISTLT

[3] = biological target: T2, human Fibroblast Activation Protein (FAP), soluble antigen (human, UniProt Q12884 26-760, biotinylated when immobilized on streptavidin sensors); experiment: BLI; Table 11, single domain
T2 construct: also called hFAP; biotinylated FAP

[4] = biological target: T3, human FAP expressed on cells (HEK 293T-hFAP-E5; ExpiCHO-hFAP) (human, UniProt Q12884 1-760); experiment: flow cytometry, 1 µg/mL antibody
T3 construct: hFAP expression vector Sino Biologics HG10464-UT; also called hFAP expressing cells

[5] = biological target: T2, human Fibroblast Activation Protein …; experiment: not stated (legend of FIG. 18B)
[6] = biological target: T2, human Fibroblast Activation Protein …; experiment: BLI per 6.1.3
[7] = biological target: T3, human FAP expressed on cells (HEK …); experiment: cell-based or functional assay
[8] = biological target: T4, IL-2hex, mutant human IL-2 (deltaA1/T3A/F42A/Y45A/L72G/C125S) (human, UniProt P60568 22-153); experiment: cell-based or functional assay
T4 chain: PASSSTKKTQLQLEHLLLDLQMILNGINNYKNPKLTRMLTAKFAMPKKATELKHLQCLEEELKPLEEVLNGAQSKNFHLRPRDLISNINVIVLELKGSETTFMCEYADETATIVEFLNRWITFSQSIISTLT

[9] = biological target: T4, IL-2hex, mutant human IL-2 …; experiment: BLI per 6.1.3; column head IL-2 KD
[10] = biological target: T4, IL-2hex, mutant human IL-2 …; experiment: Affinity (nM), Table 13B
[11] = biological target: T2, human Fibroblast Activation Protein …; experiment: Affinity (nM), Table 13B
[12] = biological target: T2, human Fibroblast Activation Protein …; experiment: BLI; Table 11, antibody variants (Fab/scFv)
[13] = biological target: T2, human Fibroblast Activation Protein …; experiment: BLI (Gator), biotinylated FAP on streptavidin sensor
[14] = biological target: T2, human Fibroblast Activation Protein …; experiment: not stated (legend of FIG. 13A)
[15] = biological target: T2, human Fibroblast Activation Protein …; experiment: bio-layer interferometry; the legend paragraph 249 gives the pair as B10 and FAP; which of the two is loaded on the sensor is not told
[16] = biological target: T4, IL-2hex, mutant human IL-2 …; experiment: not stated (legend of FIG. 7C)
[17] = biological target: human FAP expressed on cells (HEK 293T-hFAP-E5; ExpiCHO-hFAP) (human) (UniProt Q12884); experiment: cell-based or functional assay
[18] = biological target: T2, human Fibroblast Activation Protein …; experiment: BLI per 6.1.3, human FAP;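 also: biolayer interferometry with immobilized antigen on sensors, antibody association up to 240 s then dissociation up to 420 s, reference-subtracted, global 1:1 fit with unlinked Rmax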
[19] = biological target: T4, IL-2hex, mutant human IL-2 …; experiment: not stated (legend of FIG. 7B)

Fc receptor CD64, Avi-tagged, sequence (P12314 16-288 limits assumed): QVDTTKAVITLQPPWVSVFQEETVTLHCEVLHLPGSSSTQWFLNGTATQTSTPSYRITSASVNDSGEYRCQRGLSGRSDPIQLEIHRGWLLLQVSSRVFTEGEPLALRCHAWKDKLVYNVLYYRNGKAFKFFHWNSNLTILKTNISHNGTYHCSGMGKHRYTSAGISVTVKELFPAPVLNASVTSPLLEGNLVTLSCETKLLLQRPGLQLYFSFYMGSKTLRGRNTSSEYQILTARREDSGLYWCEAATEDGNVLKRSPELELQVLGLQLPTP

Molecule: Certolizumab IgG, wild-type IgG1 Fc (antibody)
CD64 Binding (% of wild-type Certolizumab-IgG1) [1]: 100%

B2: D029 HV2LV3 (bispecific antibody, V domains shown)
VH: EVQLVESGGGLVQPGGSLRLSCAASGFTFTWFFMSWVRQAPGKGLEWVSWIGPSGLYTDYADSVKGRFTISRDNSKNTLYLQMNSLRAEDTAVYYCARSQYGRYYSPDYYFDYWGQGTLVTVSS
VL: DIQMTQSPSSLSASVGDRVTITCRASGALGFYLNWYQQKPGKAPKLLIYAASSLSSGVPSRFSGSGSGTDFTLTISSLQPEDFATYYCQQGRTPPFTFGQGTKVEIKR
notes: also called Rev1-Q27G:L96F/S55L:S32F; two-in-one antibody within FB-675
Kd [5]: ~3.66 nM
Kd [6]: 3.66 nM
EC50 of HEK-Blue IL2 assay (pM) with HEK 293T-hFAP-E5; variant as masking moiety of a configuration 3 immunoconjugate [7]: 31 pM
EC50 of HEK-Blue IL2 assay (pM) with HEK 293T; variant as masking moiety of a configuration 3 immunoconjugate [8]: 5300 pM
Kd [9]: 217 nM
Kd [10]: 217 nM
Kd [11]: 3.7 nM

B5: anti-FAP antibody 872-59 (antibody, V domains shown)
VH: EVQLVESGGGLVQPGGSLRLSCAASGFTFTSYAMSWVRQAPGKGLEWVSSIYSWYGTTSYADSVKGRFTISRDNSKNTLYLQMNSLRAEDTAVYYCARTISYSQYAYGYSFDYWGQGTLVTVSS
VL: B2 VL with G27Q, A28S, L29I, G30S, F31S, S55Q, G91A, R92F, P94S, F96R
notes: also called IgG 59; FAP59
Kd [12]: 16 nM
binding result [2]: no binding
Kd [13]: 15.5 nM
koff [13]: 0.0056 s⁻¹
kon [13]: 360000 M⁻¹ s⁻¹

B7: D029 mutant Fab of FB-559 (D029HV1 with D029 VL) (bispecific antibody, V domains shown)
VH: B2 VH with F32S
VL: B2 VL with G27Q, A28D, L29G, F31N, A50G, S53T, S55Y, F96L
notes: The legend says only 'D029 mutant'
Kd [16]: ~400 nM

B10: anti-FAP antibody 872-5 (antibody, V domains shown)
VH: EVQLVESGGGLVQPGGSLRLSCAASGFTFRGYIMSWVRQAPGKGLEWVSWISPEGSRTGYADSVKGRFTISRDNSKNTLYLQMNSLRAEDTAVYYCARLQYGTWFDYWGQGTLVTVSS
VL: DIQMTQSPSSLSASVGDRVTITCRASQSISSYLNWYQQKPGKAPKLLIYAASSLQSGVPSRFSGSGSGTDFTLTISSLQPEDFATYYCQQATLLLPTFGQGTKVEIKR
notes: monovalent Fab-Fc (knob-in-hole) for KD per 6.1.3; also called IgG 5; FAP5
Kd [12]: 7 nM
binding result [2]: no binding
Kd [18]: 7.3 nM
koff [18]: 0.00201 s⁻¹
kon [18]: 277000 M⁻¹ s⁻¹
Kd [13]: 6.6 nM
koff [13]: 0.0028 s⁻¹
kon [13]: 420000 M⁻¹ s⁻¹

Next, values leading:

binding result [2]: no binding
binding result [3]: binds
binding result [4]: binds
B1: single domain anti-FAP antibody VHH6 (VHH)
VHH: EVQLVESGGGLVQPGGSLRLSCAASGFTFTPTYMYWVRQAPGKGLEWVSAIDPYGRTEYPDSVKGRFTISRDNAKNTLYLQMNSLRPEDTAVYYCAVRVPPGVYTYYRTGPYDYWGQGTLVTVSS

Kd [12]: < 1 nM
binding result [2]: no binding
Kd [13]: < 1 nM
kon [13]: 110000 M⁻¹ s⁻¹
B3: anti-FAP antibody 872-70 (antibody, V domains shown)
VH: EVQLVESGGGLVQPGGSLRLSCAASGFTFSRYSMSWVRQAPGKGLEWVSYITSTDGTTDYADSVKGRFTISRDNSKNTLYLQMNSLRAEDTAVYYCARSQYGRYYSPDYYFDYWGQGTLVTVSS
VL: B10 VL with A91S, T92R, L93T, L94S, L95P, P96Y
notes: also called IgG 70; FAP70

Kd [14]: ~1 nM
B4: scFv70, scFv derived from antibody 872-70 (scFv, V domains shown)
VH: B3 VH
VL: B10 VL with A91S, T92R, L93T, L94S, L95P, P96Y
notes: Single chain; also called scFv872-70

binding result [15]: binds
binding result [4]: binds
B6: two-in-one antibody B10 (bispecific antibody, V domains shown)
VH: B3 VH with S35G, Y50T, T52H, T54H, D55G, G56S, T57G, D59R
VL: B2 VL with G27Q, A28N, L29I, G30A, F31R, S55Q, T93Y, P94S

enhancement of EC50, HEK-Blue IL-2 reporter, with FAP-expressing cells [17]: < 200 fold
B8: immunoconjugate of configuration 3 with IL-2 polypeptide, D002 Fab and 872-70 scFv (Fc fusion, part only; not given: CH1, Fc subunits, linkers, part only)
chain, part: EVQLVESGGGLVQPGGSLRLSCAASGFTFSRYSMSWVRQAPGKGLEWVSYITSTDGTTDYADSVKGRFTISRDNSKNTLYLQMNSLRAEDTAVYYCARSQYGRYYSPDYYFDYWGQGTLVTVSSDIQMTQSPSSLSASVGDRVTITCRASQSISSYLNWYQQKPGKAPKLLIYAASSLQSGVPSRFSGSGSGTDFTLTISSLQPEDFATYYCQQSRTSPYTFGQGTKVEIKRTVAPASSSTKKTQLQLEHLLLDLQMILNGINNYKNPKLTRMLTAKFAMPKKATELKHLQCLEEELKPLEEVLNGAQSKNFHLRPRDLISNINVIVLELKGSETTFMCEYADETATIVEFLNRWITFSQSIISTLT
heavy, part: EVQLVESGGGLVQPGGSLRLSCAASGFTFSRYSMSWVRQAPGKGLEWVSDISSYSTTYYADSVKGRFTISRDNSKNTLYLQMNSLRAEDTAVYYCARSQYGRYYSPDYYFDYWGQGTLVTVSS
light, part: DIQMTQSPSSLSASVGDRVTITCRASQSIGNSLNWYQQKPGKAPKLLIYAASSLQSGVPSRFSGSGSGTDFTLTISSLQPEDFATYYCQQGRRSPFTFGQGTKVEIKRTVA

enhancement of EC50, HEK-Blue IL-2 reporter, with FAP-expressing cells [17]: < 200 fold
B9: immunoconjugate of configuration 3 with IL-2 polypeptide, D002 Fab and 872-5 scFv (Fc fusion, part only; not given: CH1, Fc subunits, linkers, part only)
chain, part: EVQLVESGGGLVQPGGSLRLSCAASGFTFRGYIMSWVRQAPGKGLEWVSWISPEGSRTGYADSVKGRFTISRDNSKNTLYLQMNSLRAEDTAVYYCARLQYGTWFDYWGQGTLVTVSSDIQMTQSPSSLSASVGDRVTITCRASQSISSYLNWYQQKPGKAPKLLIYAASSLQSGVPSRFSGSGSGTDFTLTISSLQPEDFATYYCQQATLLLPTFGQGTKVEIKRTVAPASSSTKKTQLQLEHLLLDLQMILNGINNYKNPKLTRMLTAKFAMPKKATELKHLQCLEEELKPLEEVLNGAQSKNFHLRPRDLISNINVIVLELKGSETTFMCEYADETATIVEFLNRWITFSQSIISTLT
heavy, part: B8 heavy, part
light, part: B8 light, part

Kd [19]: ~20 nM
binding result [4]: binds
B11: two-in-one antibody D047 (bispecific antibody, V domains shown)
VH: EVQLVESGGGLVQPGGSLRLSCAASGFTFHYFSMSWVRQAPGKGLEWVSSISPTYGTTDYADSVKGRFTISRDNSKNTLYLQMNSLRAEDTAVYYCARLLYGTWFDYWGQGTLVTVSS
VL: B10 VL with S28G, S30K, S31N, A91G, T92S, L93Y, L95Q
notes: Fab in FB-476

Kd [14]: ~5 nM
B12: scFv5, scFv derived from antibody 872-5 (scFv, V domains shown)
VH: B10 VH
VL: B10 VL
notes: Single chain; also called scFv872-5
